From the supplement of paper PMC9170038

Tested on: MS2 coat protein
Assay: apparent KD of MS2 coat protein; designed switch direction (-1 OFF switch, 1 ON switch): 1; higher = weaker reporter binding
Method in brief: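 Transcription of designed RNA switches on Illumina chips was done by stalled E. coli RNA polymerase. SNAP-549-labelled MS2 coat protein was then titrated in doubling steps from 0.7 or 1.5 nM to 3 µM, with steps of 0.8–1.5 h at the lowest and 10–20 min at the highest concentration. The per-design median over clusters of curve-fitted normalised fluorescence is reported as apparent KD.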

[1] = Eterna round: R95, input ligand: FMN 200 uM
[2] = Eterna round: R95, input ligand: microRNA oligo, concentration not stated
[3] = Eterna round: R95, input ligand: none
[4] = input ligand: microRNA oligo, concentration not stated

Row | Sequence | apparent KD of MS2 coat protein [1] [nM] | apparent KD of MS2 coat protein [2] [nM] | apparent KD of MS2 coat protein [3] [nM] | apparent KD of MS2 coat protein (input ligand: FMN 200 uM) [nM] | apparent KD of MS2 coat protein [4] [nM] | apparent KD of MS2 coat protein (input ligand: none) [nM]
1 | ACGCAGCUGGGUGAGGAUAUUGGUGGUACAACAUGAGGAUCACCCAUGUCCGAAGCUCGGACCCUCGAGAAGGCGCCCGGCUGCG [Soinraesar Omei Mod 5] (puzzle: Same State 2) | 122 | 17.2 | 62 | – | – | –
2 | ACGCUAAAUGGAGGAUAUGGAGCCUUAUUGGCUCCAGAAGGUCAAAACAUGAGGAUCACCCAUGUGCGGUGGUCUAAUGACCAC [Eli NG1ss - 47] (Eterna round: R96, puzzle: Same State NG 1) | – | – | – | 68 | 99.2 | 169
3 | AGAAAACAUGAGGAUCACCCAUGUAUAGUGAAUACAGGAUAUCACCGGCGGAAUAGCCAGUGAGAAGGGUGAUCGC [Aarusxe] (puzzle: Same State 1) | 71.5 | 11.5 | 41 | – | – | –
4 | AGAACAUGACGAGGAUAUGGAACAUGAGGAUCACCCAUGUAUGUUCCAUAACGCGAAUAAAGAAUCCAGAAGGCGUCGUGAAGA [Mat - Same State NG 2 - JL mod - D32] (Eterna round: R96, puzzle: Same State NG 2) | – | – | – | 34.5 | 116 | 147
5 | AGAAGACAUGAGGAUCACCCAUGUACCUCAUAAGGAGAGAGCGAGGAUAUGUAGAGAGAGAGGGAACAGAAGGUGUGAGAGGAA [Default title] (Eterna round: R96, puzzle: Same State NG 3) | – | – | – | 218 | 99.4 | 161
6 | AGAGAACAUGAGGAUCACCCAUGUGGGAGAAACAUAGGAUAUAGGAGAGAGAGGGAGGAGCUAGAAGGAUGAUGGA [JR_SS1_Sub082] (puzzle: Same State 1) | 80.5 | 91.1 | 105 | – | – | –
7 | AGAGGAAGGGCAGGAUAUACGACGGAGGACGAGGUAGAAGGGUCCAUGUGAUAACAUGAGGAUCACCCAUGUACCGCGCGACGA [AK SSNG1-V2-18] (Eterna round: R96, puzzle: Same State NG 1) | – | – | – | 147 | 43.1 | 832
8 | AGAGGAGGAGCAGGAUAUUCGAAGAAGGACGUGGAAGAAGGGUUCAUGCGAUGACAUGAGGAUCACCCAUGUACCGCGCGAGGA [AK SSNG1-V2-12] (Eterna round: R96, puzzle: Same State NG 1) | – | – | – | 63.4 | 42.6 | 69
9 | AGAGUGUAUCCACAGGAUAUGCGAGCCGACACAUGAGGAUCACCCAUGUAGUCCUAAAGGGCUGAGCAGAAGGGUGGUAAGGCUC [Xelear] (puzzle: Same State 2) | 31.7 | 169 | 285 | – | – | –
10 | AGAUAGUGUGGAAAGGAUAUACGGUUGAGGACAUGAGGAUCACCCAUGUAGUAGAGGAAGGAAGGGUAGAAGGUUCAGGAUUGAU [JR_SS2_Sub018] (puzzle: Same State 2) | 70.2 | 43.1 | 50.4 | – | – | –
11 | AGAUCAUGACGAGGAUAUCCGACAUGAGGAUCACCCAUGUAUGUCGGAGGACGAAUACGUCCAAAGGAGAAGGCGUCGUGGUCA [Mat - Same State NG 2 - JL mod - D38] (Eterna round: R96, puzzle: Same State NG 2) | – | – | – | 25.2 | 62.9 | 85.4
12 | AGAUCAUGACGAGGAUAUGGUACAUGAGGAUCACCCAUGUAUGUACUAUAACCCGUAUGAGGAAUCCAGAAGGCGUCGUGGUCA [JL SSNG2 1.17] (Eterna round: R96, puzzle: Same State NG 2) | – | – | – | 23.8 | 71.8 | 85.9
13 | AGCCGAAGCACAGGAUAUACAUGUAUACAUGAGGAUCACCCAUGUAGCAACACGUGGUAGUGAUUGUAGAAGGGUGCUCGGCGC [Omei SS(NG)2 Cv14] (Eterna round: R96, puzzle: Same State NG 2) | – | – | – | 21.3 | 16 | 25.3
14 | AGCCGAGACGCAGGAUAUAGAUAUCUACAUGAGGAUCACCCAUGUAGCAACACGUGGUAGUGAUUCUAGAAGGGUGCUCGGCGC [Omei SS(NG)2 Cv7] (Eterna round: R96, puzzle: Same State NG 2) | – | – | – | 44.9 | 322 | 504
15 | AGCCGAGACUGAGGAUAUUUAAAUCUACAUGAGGAUCACCCAUGUAACAACACGUGGUAGUGAUUGAAGAAGGCGGCUCGGCGC [Omei SS(NG)2 Cv2] (Eterna round: R96, puzzle: Same State NG 2) | – | – | – | 177 | 406 | 404
16 | AGCCGAGACUGAGGAUAUUUUAAUCUACAUGAGGAUCACCCAUGUAACAACACGUGGUAUUGAUAGAAGAAGGCGGCUCGGCGC [Omei SS(NG)2 C] (Eterna round: R96, puzzle: Same State NG 2) | – | – | – | 24.3 | 50.4 | 64
17 | AGCGCGGUCUCGCAGGAUAUCCACAAUCCUACAUGAGGAUCACCCAUGUCGCUGCAGGAUAUUAGGGAGAAGGGUGAUGCCGCGC [Riorge] (puzzle: Same State 2) | – | 25.2 | – | – | – | –
18 | AGCUAGGUGGCAGGAUAUGGGCACACCUACAUGAGGAUCACCCAUGUCUAAAGGUUGCAAAAGGACCAGAAGGGCCACGCUAGC [Onzaislege] (Eterna round: R96, puzzle: Same State NG 2) | – | – | – | 19.2 | 82.7 | 178
19 | AGCUAGUACCAAGGAUAUACGAACAUGAGGAUCACCCAUGUAUACAUGGUUUAAUGAGACUACAUGUAGAAGGUGGUACUAGCA [SameState NG2 #12] (Eterna round: R96, puzzle: Same State NG 2) | – | – | – | 387 | 338 | 538
20 | AGCUAGUACCGAGGAUAUACAUACAUGAGGAUCACCCAUGUAUACAUGAAAUAAUGAGACUACAUGUAGAAGGCGGUACUAGCA [Mat - Same State NG 2 - JL mod - D45] (Eterna round: R96, puzzle: Same State NG 2) | – | – | – | 16.9 | 43.5 | 63.4
21 | AGCUAGUACCGAGGAUAUACGAACAUGAGGAUCACCCAUGUAUACAUGGUUUAAUGAGACUACAUGUAGAAGGCGGUACUAGCA [SameState NG2 #11] (Eterna round: R96, puzzle: Same State NG 2) | – | – | – | 1110 | 281 | 624
22 | AGCUAGUACGAAGGAUAUACAAACAUGAGGAUCACCCAUGUAUACAUGGUUUGUUGUGACUACAUGUAGAAGGUCGUACUAGCA [SameState NG2 #16] (Eterna round: R96, puzzle: Same State NG 2) | – | – | – | 362 | 773 | 987
23 | AGCUAUCGAAAACGAUAGCAAAAGCAUGUACAUGAGGAUCACCCAUGUCAUGUACAGGCUUUUUGCUCGUCUUAAAA [Zipper 23 - 8] (puzzle: Sensor for hsa-mir-208a) | 26.4 | 18.3 | 124 | – | – | –
